This is an account of results in US20190100602A1 (INSERM INSTITUT NATIONAL DE LA SANT ET DE LA RECHERCHE M …, published 2019).

Assay [1] deals with T1, human antithrombin (human, UniProt P01008 33-464).
T1 construct: Serpin; the description says that AT consists of 432 amino acids; also called purified human antithrombin; AT
As to the kind of experiment: BLI (Octet-QK), sdAb coupled to sensor, antithrombin 12.5-50 ug/ml; apparent KD. The protocol: The interaction between sdAbs KB-AT-001, KB-AT-002, KB-AT-003 and KB-AT-006 versus human antithrombin was further analyzed via biolayer-interferometry analysis using Octet-QK equipment in order to determine apparent dissociation constants (KD,app). To this end, sdAbs KB-AT-001, KB-AT-002, KB-AT-003 and KB-AT-006 were diluted in 0.1 M Mes (pH 5.0) to a concentration of 200 microgram/ml for coupling to EDC/NHS-activated amine-reactive biosensors (Fort6bio, Menlo Park, Calif., USA). Sensors were rehydrated in 0.2 ml 0.1 M MES, pH 5.0 for 300 sec. Sensors were then activated via incubation with 0.1 ml 0.2 M EDC/0.095 M NHS mixture for 300 sec and subsequently incubated with 0.1 ml sdAb-solution for 600 sec. […] Following this association phase, sensors were transferred to wells containing PBS-T and incubated for 900 sec, allowing dissociation of the antithrombin-sdAb complex. Obtained data were subsequently analyzed using Octet-QK data analysis software (Origin vs 4) to estimate KD,app.

In assay [2] the target is T1, human antithrombin. The experiment in a line: ELISA, sdAb coated, plasma 1/4, bound antithrombin probed with polyclonal anti-antithrombin; grade by OD. The method, then: (§1) sdAbs KB-AT-001, -002. -003, -004, -005, -006, and -007 were immobilized (10 microgram/ml) in 10 mM NaHCO₃, 50 mM Na2CO3 (pH 9.5) in a volume of 50 microliter in half-well microtiter plates (Greiner Bio-One, Les Ulis, France) for 16 h at 4° C. As a positive control, polyclonal anti-antithrombin antibodies (MATIII-EIA kit, Affinity biologicals, Ancaster Canada) were immobilized in a similar fashion. As a negative control, the anti-von Willebrand sdAb KB-VWF-006 was immobilized. After washing the wells three times with 100 microliter/well using Tris-buffered saline (pH 7.6) supplemented with 0.1% Tween-20 (TBS-T), wells were blocked with 100 microliter/well of TBS-T supplemented with 3% bovine serum albumin (BSA) for 30 min at 37° C. Wells were washed as described above, and subsequently the following plasma preparations (diluted ¼ in TBS-T/3% BSA, 100 microliter per well, 2 hours at 37° C.) were added to each of the immobilized sdAbs and both types of control wells: rabbit plasma, canine plasma, simian plasma, bovine plasma, porcine plasma, rat plasma, murine plasma and human plasma.
(§2) Wells were then washed three times with 100 microliter/well using TBS-T. Bound antithrombin was probed with peroxidase-labeled polyclonal anti-antithrombin antibodies (MATIII-EIA kit, Affinity biologicals, Ancaster Canada; diluted 1/100) for 2 hours at 37° C. with 50 microliter per well. Wells were then washed three times with 100 microliter/well using TBS-T. Residual peroxidase activity was detected by measuring peroxidase-mediated hydrolysis of 3,3′,5,5′-tetramethylbenzidine.
(§3) Negative binding (−) was defined as optical density (OD) being ≤0.1, moderate positive binding (+) was defined as OD being >0.1 and <0.5, strongly positive binding (++) was defined as OD being ≥0.5. […] All plasma preparations had moderate or strongly positive binding to the positive control (polyclonal anti-antithrombin antibodies).

The next assay deals with T2, canine antithrombin (canine).
T2 construct: Native protein in plasma diluted 1/4; also called canine AT; antithrombin in canine plasma
The assay is described as above. The method, then:
as §1, §2, §3

The target in a further assay is T3, rat antithrombin (rat, UniProt Q8VHJ4).
T3 construct: Native protein in plasma diluted 1/4; also called rat AT; antithrombin in rat plasma
Described as above. The method, then:
as §1, §2, §3

Assay [3] concerns the target T4, murine antithrombin (mouse, UniProt P32261 33-465).
T4 construct: also called mouse antithrombin; murine AT
The description is as above. The protocol: as §1, §2, §3

The target in another assay is T5, porcine antithrombin (porcine).
T5 construct: Native protein in plasma diluted 1/4; also called porcine AT; antithrombin in porcine plasma
Described as above. The protocol:
as §1, §2, §3

Another assay addresses T6, rabbit antithrombin (rabbit).
T6 construct: Native protein in plasma diluted 1/4; also called rabbit AT; antithrombin in rabbit plasma
Described as above. The method, then:
as §1, §2, §3

The target of the next assay is T7, bovine antithrombin (bovine, UniProt P41361 33-465).
T7 construct: Native protein in plasma diluted 1/4; also called bovine AT; antithrombin in bovine plasma
T7 sequence (P41361 33-465): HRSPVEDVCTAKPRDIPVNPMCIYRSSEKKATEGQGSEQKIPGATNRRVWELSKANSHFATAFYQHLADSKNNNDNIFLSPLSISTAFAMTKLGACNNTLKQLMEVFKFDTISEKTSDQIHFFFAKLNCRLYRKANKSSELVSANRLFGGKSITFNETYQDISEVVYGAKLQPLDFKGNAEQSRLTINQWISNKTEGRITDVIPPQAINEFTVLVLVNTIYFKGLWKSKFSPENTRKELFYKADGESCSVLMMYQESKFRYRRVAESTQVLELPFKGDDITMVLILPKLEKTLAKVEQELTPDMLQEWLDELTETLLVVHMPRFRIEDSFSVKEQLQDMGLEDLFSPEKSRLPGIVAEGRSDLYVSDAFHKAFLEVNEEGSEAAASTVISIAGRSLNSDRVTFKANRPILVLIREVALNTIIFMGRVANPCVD
The description is as above. The protocol:
as §1, §2, §3

A further assay concerns the target T8, simian antithrombin (simian).
T8 construct: Native protein in plasma diluted 1/4; also called simian AT; antithrombin in simian plasma
Described as above. The method, then:
as §1, §2, §3

Assay [4] has as its target T1, human antithrombin. As to the kind of experiment: cell-based or functional assay.
The target in assay [5] is T1, human antithrombin. As to the kind of experiment: cell-based or functional assay. The source holds these as a separate data set.
Assay [6] concerns the target T1, human antithrombin. As to the kind of experiment: ELISA: sdAb coated on the plate, antithrombin added in solution; the concentration is that of antithrombin. The method, then:
(§4) sdAbs recognizing antithrombin (KB-AT-001, -002, -003, -004, -005, -006, and -007) were immobilized (5 microgram/ml) in 10 mM NaHCO₃, 50 mM Na2CO3 (pH 9.5) in a volume of 50 microliter in half-well microtiter plates (Greiner Bio-One, Les Ulis, France) for 16 h at 4° C. After washing the wells three times with 100 microliter/well using Tris-buffered saline (pH 7.6) supplemented with 0.1% Tween-20 (TBS-T), wells were blocked with 100 microliter/well of TBS-T supplemented with 5% skimmed milk for 30 min at 37° C. Wells were washed as described above, and subsequently different concentrations of purified human antithrombin or murine antithrombin (0-5 micromolar diluted in Tris-buffered saline (pH 7.6) supplemented with 5% skimmed milk; 50 microliter/well) were added to each of the immobilized sdAbs and incubated for 2 hours. Wells were then washed three times with 100 microliter/well using TBS-T. Bound antithrombin was probed with peroxidase-labeled polyclonal rabbit anti-antithrombin antibodies (Diagnostica Stago, Asnièrs-sur-Seine, France; Dilution 1/100) for 1 hour at 37° C. with 50 microliter per well. Wells were then washed three times with 100 microliter/well using TBS-T. Residual peroxidase activity was detected by measuring peroxidase-mediated hydrolysis of 3,3′,5,5′-tetramethylbenzidine. OD-values were plotted against antithrombin concentrations (FIG. 1).
(In general: ELISA stands for enzyme-linked immunosorbent assay.)

Assay [7] has as its target T4, murine antithrombin. The description is as above. The method, then: as §4

T1 sequence (P01008 33-464 limits assumed): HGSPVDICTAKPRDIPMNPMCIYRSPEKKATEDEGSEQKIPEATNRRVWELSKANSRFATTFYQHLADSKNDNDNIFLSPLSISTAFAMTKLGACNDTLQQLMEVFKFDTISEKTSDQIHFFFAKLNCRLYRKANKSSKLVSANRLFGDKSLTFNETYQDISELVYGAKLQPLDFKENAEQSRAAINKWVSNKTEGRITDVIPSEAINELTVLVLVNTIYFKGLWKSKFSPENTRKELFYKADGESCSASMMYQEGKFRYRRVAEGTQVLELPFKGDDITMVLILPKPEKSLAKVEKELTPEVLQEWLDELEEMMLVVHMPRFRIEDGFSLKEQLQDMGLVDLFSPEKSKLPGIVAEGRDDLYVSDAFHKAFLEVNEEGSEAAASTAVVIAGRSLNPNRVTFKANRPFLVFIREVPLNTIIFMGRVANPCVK
T4 sequence (P32261 33-465 limits assumed): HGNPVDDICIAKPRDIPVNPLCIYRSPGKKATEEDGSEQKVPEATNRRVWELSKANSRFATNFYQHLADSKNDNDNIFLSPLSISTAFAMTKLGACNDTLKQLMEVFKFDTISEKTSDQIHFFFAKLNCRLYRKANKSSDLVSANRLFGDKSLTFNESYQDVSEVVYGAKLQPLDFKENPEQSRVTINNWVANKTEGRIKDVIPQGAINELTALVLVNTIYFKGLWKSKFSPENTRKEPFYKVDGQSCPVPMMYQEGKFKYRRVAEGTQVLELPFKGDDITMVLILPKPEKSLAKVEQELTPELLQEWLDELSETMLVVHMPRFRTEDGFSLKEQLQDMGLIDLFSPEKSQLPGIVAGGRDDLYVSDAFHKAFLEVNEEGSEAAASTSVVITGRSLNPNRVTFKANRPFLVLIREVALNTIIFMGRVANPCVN

B1: KB-AT-002 (VHH)
VHH: QVQLVQSGGGLVQAGGSLRLSCAASGRTFNNNGMGWFRQAPGKEREFVAAISWSGGSTYYADSVKGRYIMSRDNAKNTVYLQMNSLKPEDTAVYYCAARTRYNSGLFSRNYDYWGQGTQVTVSS
notes: Monovalent anti-antithrombin single-domain antibody; also called sdAb KB-AT-002
With B1, in the assay with human antithrombin [1], the Kd came out at 4 nM. For the same molecule, the OD with human antithrombin [2], in the assay with canine antithrombin, in the assay with rat antithrombin, in the assay with murine antithrombin [3], with porcine antithrombin and in the assay with rabbit antithrombin was not below 0.5 od throughout. Also, the OD in the assay with bovine antithrombin and with simian antithrombin was not below 0.5 od throughout. In the assay with human antithrombin [4], the “% antithrombin neutralization (thrombin amidolytic activity on S-2238, no heparin)” value stood at 65%. In addition, the “percentage of neutralization of antithrombin-mediated factor Xa inhibition, with LMW-heparin” value in the assay with human antithrombin [5] is less than 15%. For the same molecule, the “percentage of neutralization of antithrombin-mediated thrombin inhibition, with unfractionated heparin” value with human antithrombin [5] was less than 5%. In addition, the EC50 (read off the curve) (as a rule, the midpoint of the concentration-response curve) with human antithrombin [6] was approximately 600 nM; in the assay with murine antithrombin [7], approximately 500 nM.
